# Data published in patent publication US6015560, “Antibody recognizing endothelial cell ligand for leukocyte CR3” (The Rockfeller University, dated 2000).
# Biological target: T1, integrin complement receptor 3 (CR3) on human leukocytes (human, UniProt P11215)
# Test: cell-based or functional assay
row,Binder,inhibition of adherence of human neutrophils to cultured endothelial cells [%]
1,RGDPHQGVLAQGDIIMDAKGGTLLLRNDALTENGTVTISADSAVL [FHA peptide C],62
2,AKKLFLNGTLRAVNDNNETMSGRQIDVVDGRPQITDAVTGEARKD [FHA peptide E],< 15
3,RQDFFTPGSVVVRAQGNVTVGRGDPHQGVLAQGDIIMDAKGGTLL [FHA peptide B],29
4,LEHSTIESKISQSVLAAKGDKGKPAVSVKVAKKLFLNGTLRAVND [FHA peptide D],< 15
5,IGALKAGAVEAASPRRAARRALRQDFFTPGSVVVRAQGNYTVGRGD [FHA peptide A],< 15
6,FHA peptide G (peptide) peptide: IVVEAGELVSHAGGIGNGRNKENGASVTVRTTGNLVNKGYISAGKQGVLEVGGAL,< 15
7,RPQITDAVTGEARKDESVVSDAALVADGGPIVVEAGELVSHAGGI [FHA peptide F],< 15

# Biological target: T1, integrin complement receptor 3 (CR3) on …
# Test: macrophages spread on peptide-coated wells; residual CD11b/CD18 detected with C3bi-coated erythrocytes
row,Binder,binding result
1,GTLLLRNDALTENGTVTISA [FHA peptide Cd],no binding (tested: wells coated with 0.5 mM peptide)
2,AADPHQGVLAQGDIIMDAKG [FHA peptide Cc],no binding (tested: wells coated with 0.5 mM peptide)
3,RADPHQGVLAQGDIIMDAKG [FHA peptide Cb],no binding (tested: wells coated with 0.5 mM peptide)
